The values below come from patent publication US20090142372A1.

In assay [1] the target is vBSP-4 anchored on carrier bacteria (human; Listeria monocytogenes) (UniProt P21815). The assay can be described thus: flow cytometry of carrier bacteria displaying vBSP-4, before deactivation.
Assay [2] deals with fusion peptide of pIUSind-mBSP5x anchored on Listeria (human; Listeria monocytogenes). The experiment in a line: flow cytometry of carrier bacteria displaying the eBSP 5-fold multimer, after deactivation.
Assay [3] has as its target fusion peptide of pIUSind-mBSP6x anchored on Listeria (human; Listeria monocytogenes). The experiment in a line: flow cytometry of carrier bacteria displaying the eBSP 6-fold multimer, after deactivation.
In assay [4] the target is vBSP-2 anchored on carrier bacteria (human; Listeria monocytogenes) (UniProt P21815). The experiment in a line: flow cytometry of carrier bacteria displaying vBSP-2, before deactivation. (In general: A flow cytometer gives signals particle by particle.)
In assay [5] the target is fusion peptide of pIUSind-mBSP5x anchored on Listeria (human; Listeria monocytogenes). The experiment in a line: flow cytometry of deactivated carrier bacteria displaying the 5-fold multimer (FIG. 11; rabbit tumor eBSP antiserum).
The target of assay [6] is vBSP-3 anchored on carrier bacteria (human; Listeria monocytogenes) (UniProt P21815). The assay can be described thus: flow cytometry of carrier bacteria displaying vBSP-3, before deactivation.
Assay [7] has the same target. The assay can be described thus: flow cytometry of carrier bacteria displaying vBSP-3, grown in BHI and minimal media, before deactivation (FIG. 4A and B).
Assay [8] deals with fusion peptide of pIUSind-mBSP6x anchored on Listeria (human; Listeria monocytogenes). The assay can be described thus: flow cytometry of deactivated carrier bacteria displaying the 6-fold multimer (FIG. 11; rabbit tumor eBSP antiserum).
The target is the same in assay [9]. The assay can be described thus: flow cytometry of carrier bacteria displaying the eBSP 6-fold multimer, before deactivation.
Assay [10] addresses fusion peptide of pIUSind-mBSP1x anchored on Listeria (human; Listeria monocytogenes) (UniProt Q723K6). The assay can be described thus: flow cytometry of carrier bacteria displaying eBSP monomer, BHI and minimal medium (FIG. 9, 10; tumor-epitope specific rabbit antibodies).
The target in assay [11] is fusion peptide of pIUSind-mBSP4x anchored on Listeria (human; Listeria monocytogenes) (UniProt Q723K6). The assay can be described thus: flow cytometry of deactivated carrier bacteria displaying the 4-fold multimer (FIG. 11; rabbit tumor eBSP antiserum).
Assay [12] concerns the target fusion peptide of pIUSind-mBSP3x anchored on Listeria (human; Listeria monocytogenes) (UniProt Q723K6). The experiment in a line: flow cytometry of deactivated carrier bacteria displaying the 3-fold multimer (FIG. 11; rabbit tumor eBSP antiserum).
For assay [13], the target named is fusion peptide of pIUSind-mBSP5x anchored on Listeria (human; Listeria monocytogenes). The experiment in a line: flow cytometry of carrier bacteria displaying the eBSP 5-fold multimer, before deactivation.
For assay [14], the target named is vBSP-3 anchored on carrier bacteria (human; Listeria monocytogenes) (UniProt P21815). The assay can be described thus: flow cytometry of deactivated carrier bacteria displaying vBSP-3, grown in minimal medium (FIG. 5B).
For assay [15], the target named is vBSP-2 anchored on carrier bacteria (human; Listeria monocytogenes) (UniProt P21815). The assay can be described thus: flow cytometry of carrier bacteria displaying vBSP-2, after deactivation.
Assay [16] concerns the target fusion peptide of pIUSind-mBSP5x anchored on Listeria (human; Listeria monocytogenes). The experiment in a line: flow cytometry of carrier bacteria displaying eBSP pentamer, BHI and minimal medium (FIG. 9, 10; tumor-epitope specific rabbit antibodies).
In assay [17] the target is vBSP-4 anchored on carrier bacteria (human; Listeria monocytogenes) (UniProt P21815). The experiment in a line: flow cytometry of carrier bacteria displaying vBSP-4, after deactivation.
Assay [18] concerns the target vBSP-3 anchored on carrier bacteria (human; Listeria monocytogenes) (UniProt P21815). The assay can be described thus: flow cytometry of carrier bacteria displaying vBSP-3, after deactivation.
Assay [19] has as its target eBSP tumor epitope fused to a bacterial carrier protein, anchored on carrier bacteria (human; Listeria monocytogenes). The experiment in a line: flow cytometry of carrier bacteria displaying the eBSP-carrier fusion (FIG. 7B).

Bounds are passed on as bounds.

With “Anti-Human Bone Sialoprotein (amino acids 108-122) Antibody, polyclonal antiserum, Immundiagnostik AG, Cat.-No. A4219.2, Lot H3150503”, the anchoring efficiency (proportion of positive bacteria in FACS) in assay [1] is 57.8%; in [2], 40.1%; in [3] it was 46.5%; in assay [4] it was 58.4%; in assay [5], above 40%; in [6] it was 52.3%. The anchoring efficiency (proportion of positive bacteria in FACS) in assay [7] is above 52%; in assay [8] it was above 40%; in assay [9], 34.2%; in assay [10], below 10%; in [11], above 40%; in assay [12], above 40%. Also, the anchoring efficiency (proportion of positive bacteria in FACS) in assay [13] was 42.5%; in assay [14], 41%; in [15], 65%; in assay [16] it was above 40%; in assay [17] it was 67.8%; in [18] it was 63.9%. Further, in [19], the anchoring efficiency (proportion of positive bacteria in FACS) is 6 to 7%.
